Data on one substance can be found in publication PMC4176381.

This series deals with CSL (RBPJ) (Mus musculus) (UniProt P31266). The series can be described thus: ITC. As to conditions: text: measurable, albeit weak, binding; ITC: 50 mM sodium phosphate pH 6.5, 150 mM NaCl, 10 C (10 uM CSL in cell, 100 uM DNA in syringe). EMSA: 150 mM KCl, 50 mM Tris pH 7.4, 1 mM DTT, 2% polyvinyl …. Background: In EMSA bound probe runs differently from free probe, usually more slowly.

One may read the Kd as the free concentration of one partner at which half of the binding sites on the other are occupied at equilibrium, for simple one-to-one binding. A high value points to lower affinity.

A value given as a limit tells only on which side of the number the result lay.

Sequence of CSL (RBPJ) (Mus musculus) (P31266 53-474): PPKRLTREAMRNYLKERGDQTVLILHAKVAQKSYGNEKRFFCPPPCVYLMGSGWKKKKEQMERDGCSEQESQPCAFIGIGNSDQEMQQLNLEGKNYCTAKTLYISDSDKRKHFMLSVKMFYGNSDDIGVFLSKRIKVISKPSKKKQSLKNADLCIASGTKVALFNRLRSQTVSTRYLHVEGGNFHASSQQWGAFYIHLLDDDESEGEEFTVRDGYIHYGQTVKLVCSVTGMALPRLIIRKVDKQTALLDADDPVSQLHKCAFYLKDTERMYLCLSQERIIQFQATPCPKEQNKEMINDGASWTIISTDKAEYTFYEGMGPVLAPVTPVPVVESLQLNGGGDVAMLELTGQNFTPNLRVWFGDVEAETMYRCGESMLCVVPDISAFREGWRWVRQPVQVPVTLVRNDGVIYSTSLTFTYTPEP

Substance ITC duplex CGTGAAAA gave a Kd greater than 50 µM.
